Source: article PMC12103068

Substrate: CC(=O)Oc1cccc2ccccc12
Assay: purified protein
Format: biochemical, Aspergillus oryzae
Conditions: 50 mM sodium phosphate pH 8.0, 30 °C (general assay conditions)

B1: AoAxeB (Aspergillus oryzae RIB40) (protein)
chain: AGSAGCGQPLPPSQNPGGSSYGVNFTLSAGTQRFYRIHIPSNYNVNTPTPLIFSFHGRGKTAESQEKLSQFSNEDWNPDAIAVYPQGLNKEWQGDPHSKDVDDIAFTMEMLDYFQEKFCIDSTRVYAAGKSNGGGFTNLLACDPTASTRIAAFAPVSGAYYQDVSEEACHPTTVPIKCSPGRPSIPILEFHGTADKTIPYGGGGRRGECLPSIPHFVREWSKRLGYGLHNTTKELYDGNVQEYQYGNGDNRGIVTHYRIGGLGHDWPSVRPNSDNPNGTYLDATPIIVKFFKQWVLPGSSEDNQSEAR
Km: 240 ± 120 µM | kcat: 0.17 ± 0.03 s⁻¹
